Laboratory results taken from patent US20220177599A1.

Key:
[1] = molecular target: Recombinant human EpCAM monomer protein (R&D systems, cat. no. 9277-EP), conjugated with Alexa Fluor 647 (human) (UniProt P16422); test: saturation binding by flow cytometry: CAR-expressing Jurkat T cells stained with serially diluted Alexa Fluor 647-conjugated EpCAM, one-site nonlinear regression of MFI
[2] = molecular target: Recombinant human EpCAM monomer protein (R&D systems, cat. no. 9277-EP), conjugated with Alexa Fluor 647 (human) (UniProt P16422); test: flow cytometry saturation binding: CAR-expressing Jurkat T cells stained with serially diluted AF647-conjugated EpCAM, MFI fitted with the one-site nonlinear regression model
[3] = molecular target: Recombinant human EpCAM monomer protein (R&D systems, cat. no. 9277-EP), conjugated with Alexa Fluor 647 (human) (UniProt P16422); test: saturation binding by flow cytometry on CAR-expressing Jurkat T cells with Alexa Fluor 647-conjugated EpCAM; reference is C215 CAR
[4] = molecular target: EpCAM on tumor cells (SK-BR3, Capan-2, HT-29, SNU-638, MKN-45, MDA-MB-231, SW-1990) (human) (UniProt P16422); test: cell-based or functional assay
[5] = molecular target: Intercellular adhesion molecule-1 (ICAM-1) on tumor cells (SNU-638, MKN-45) (human) (UniProt P05362); test: cell-based or functional assay
UniProt P05362, sequence (P05362 28-532): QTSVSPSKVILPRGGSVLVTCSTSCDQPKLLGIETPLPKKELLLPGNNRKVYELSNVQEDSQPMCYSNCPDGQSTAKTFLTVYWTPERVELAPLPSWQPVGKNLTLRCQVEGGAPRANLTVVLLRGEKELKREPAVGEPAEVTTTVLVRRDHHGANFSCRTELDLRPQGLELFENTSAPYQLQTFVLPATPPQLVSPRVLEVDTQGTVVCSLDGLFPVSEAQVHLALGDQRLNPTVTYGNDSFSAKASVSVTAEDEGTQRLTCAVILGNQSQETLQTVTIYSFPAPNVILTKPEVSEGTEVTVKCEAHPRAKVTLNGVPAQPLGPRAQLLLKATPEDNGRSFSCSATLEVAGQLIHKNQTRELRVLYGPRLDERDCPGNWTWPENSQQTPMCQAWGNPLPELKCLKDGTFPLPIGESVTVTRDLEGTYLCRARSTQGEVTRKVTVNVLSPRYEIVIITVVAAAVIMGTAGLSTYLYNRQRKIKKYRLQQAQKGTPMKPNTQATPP

Kd [1] [µM]	Kd [2] [µM]	fold difference of KD against C215 CAR [3] [fold]	Molecule	lysis of SNU-638 and MKN-45 wild-type cells at 48 hours (bioluminescence-based cytotoxicity assay, E:T 1:1) [4] [%]	killing of MKN-45 cells at 48 hours (bioluminescence-based cytotoxicity assay, E:T 1:1) [5]	specific lysis of SNU-638 cells at 48 hours (bioluminescence-based cytotoxicity assay, E:T 1:1) [5] [%]
0.004	0.00395	–	C215 CAR (anti-EpCAM chimeric antigen receptor with the scFv of mouse monoclonal antibody C215, CD28-CD3ζ 2nd generation backbone)	–	–	–
0.25	0.253	> 60	UBS54 CAR (anti-EpCAM chimeric antigen receptor with the scFv of monoclonal antibody UBS-54, CD28-CD3ζ 2nd generation backbone)	90	–	–
–	–	–	F292A CAR (ICAM-1 CAR with the LFA-1 αL I domain carrying the F292A mutation, 4-1BB-CD3ζ) (receptor, part only; not given: hinge, transmembrane, signalling domains, tag, not shown: large carriers) chain, part: VDLVFLFDGSMSLQPDEFQKILDFMKDVMKKLSNTSYQFAAVQFSTSYKTEFDFSDYVKWKDPDALLKHVKHMLLLTNTFGAINYVATEVFREELGARPDATKVLIIITDGEATDSGNIDAAKDIIRYIIGIGKHFQTKESQETLHKFASKPASEFVKILDTAEKLKDLFTELQKKIYVIE	–	0	40
